Measured values from article PMC3605045, “GH1-family 6-P-β-glucosidases from human microbiome lactic acid bacteria” (Acta Crystallographica Section D: Biological Crystallography, 2013).

Target: the molecule itself
Assay: SEC; Superdex 200 16/60, 20 mM HEPES-NaOH pH 8.0, 250 mM NaCl, 2 mM DTT, proteins ~3 mg/ml, 1 ml/min, calibrated with ferritin, aldolase, conalbumin and ovalbumin; oligomeric state from the elution volume

B1: 6-P-β-glucosidase from Streptococcus mutans UA159 (SmBgl) (enzyme)
chain: SNAMSKLPENFLWGGAVAAHQLEGGWQEGGKGISVADVMTAGRHGVAREITAGVLEGKYYPNHEAIDFYHHYKEDVKLFAEMGFKCFRTSIAWTRIFPKGDEAEPNEAGLQFYDDLFDECLKYGIEPVVTLSHFELPYHLVTEYGGFTNRKVIDFFVHFAEVCFRRYKDKVKYWMTFNEINNQANYQEDFAPFTNSGIVYKEGDDREAIMYQAAHYELVASARAVKIGHAINPNLNIGCMVAMCPIYPATCNPKDILMAQKAMQKRYYFADVHVHGFYPEHIFKYWERKAIKVDFTERDKKDLFEGTVDYIGFSYYMSFVIDAHRENNPYYDYLETEDLVKNPYVKASDWDWQIDPQGLRYALNWFTDMYHLPLFIVENGFGAIDQVEADGMVHDDYRIDYLGAHIKEMIKAVDEDGVELMGYTPWGCIDLVSAGTGEMRKRYGFIYVDKDDEGKGTLKRSPKLSFNWYKEVIASNGDDI
notes: non-natural N-terminal extension left after TEV cleavage of the His6 tag (vector pMCSG7); 6-P-β-glucosidase Bgl of Streptococcus mutans UA159, 477 residues (Met1-Ile477), amplified from genomic DNA; The SAD structure (3pn8) was solved from selenomethionine-labelled protein; source: E. coli BL21 (DE3) Magic, purified (IMAC-I, SEC on Superdex 200, TEV cleavage of the His6 tag, IMAC-II); not shown: …
  stoichiometry N: 2
